Consider one substance from patent US20110245167A1.

The target in the test is Recombinant human Src expressed in Sf9 insect cells (purified recombinant full-length Src from Upstate Biotechnology) (human) (UniProt P12931). Description: cell-based or functional assay.

“GST-ND1 (amino acid residue 379-435 of pig kidney Na/K-ATPase α1 subunit) (from UniProt P05023 381-439)”: the IC50 of Src inhibition (pY418) was 50 nM.
